The record followed here is patent US20220275103A1 (CENTRICSBIO, published 2022).

One assay addresses T1, mouse CD300c antigen (mouse).
T1 sequence (A2A7V7 whole entry, looked up): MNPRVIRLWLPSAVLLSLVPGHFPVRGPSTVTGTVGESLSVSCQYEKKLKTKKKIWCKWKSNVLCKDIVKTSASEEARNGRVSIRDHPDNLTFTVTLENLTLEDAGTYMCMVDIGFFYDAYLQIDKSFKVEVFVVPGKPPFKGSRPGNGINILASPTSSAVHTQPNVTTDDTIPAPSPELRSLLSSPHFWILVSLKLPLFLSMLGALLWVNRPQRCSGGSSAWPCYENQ
The assay is described as follows: cell-based or functional assay.

Assay [1] has as its target T2, CD86[B7-2] (Sino Biological) (UniProt P42081 24-247, limits assumed).
T2 sequence (looked up): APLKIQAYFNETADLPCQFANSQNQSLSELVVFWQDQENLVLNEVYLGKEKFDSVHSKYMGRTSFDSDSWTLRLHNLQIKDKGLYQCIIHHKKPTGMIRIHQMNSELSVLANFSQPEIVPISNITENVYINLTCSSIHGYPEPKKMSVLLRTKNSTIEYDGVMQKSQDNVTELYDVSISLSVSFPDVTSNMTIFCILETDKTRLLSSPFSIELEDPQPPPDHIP
The assay is described as follows: binding ELISA, antigens coated at 8 ug/mL, HRP anti-Fc IgG, O.D 450 nm. Here is the method: (§1) Binding ELISA was performed to identify that the anti-CD300c monoclonal antibody CL7 specifically binds only to CD300c without binding to other B7 family proteins. More specifically, each of CD300c antigen, CD300a antigen, or seven B7 family protein antigens (PD-L1 [B7-H1] (Sino Biological), ICOS Ligand[B7-H2] (Sino Biological), CD276[B7-H3] (Sino Biological), B7-H4 (Sino Biological), CD80[B7-1] (Sino Biological), CD86[B7-2] (Sino Biological), CD273[PD-L2] (Sino Biological)) in a coating buffer (0.1 M sodium carbonate, pH 9.0) was coated on an ELISA plate at a concentration of 8 μg/mL per well, and then incubation was performed at 2° C. to 8° C. overnight so that the antigen bound to the plate. The unbound antigen was removed by performing washing with PBST three times, and then […] of blocking buffer (5% skim milk in PBST) was added to each well. Subsequently, blocking was performed at room temperature for 1 hour, and then washing was performed again with PBST. Thereafter, CL7 was diluted in quadruplicate with PBS, and subjected to reaction with the antigen at room temperature for 1 hour for antigen binding. 1 hour later, washing with PBST was performed three times. Then, a secondary antibody (HRP-conjugated anti-Fc IgG) diluted to 4 μg/mL in blocking buffer was added thereto, and reaction was allowed to proceed at room temperature for 1 hour. Subsequently, the unbound antibody for detection was removed using PBST, and then a TMB solution was added thereto. Reaction was allowed to proceed for 10 minutes for development. Then, 2 N sulfuric acid solution was added to terminate the development, and the absorbance was measured at 450 nm to identify the antibody that specifically binds to the CD300c antigen.

Assay [2] has as its target T3, CD300a antigen (12449-H08H, Sino Biological) (UniProt Q9UGN4 18-180).
T3 sequence (looked up): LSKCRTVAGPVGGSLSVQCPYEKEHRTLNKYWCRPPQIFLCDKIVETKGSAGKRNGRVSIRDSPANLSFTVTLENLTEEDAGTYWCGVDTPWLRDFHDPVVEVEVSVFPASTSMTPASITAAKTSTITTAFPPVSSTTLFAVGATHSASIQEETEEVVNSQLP
The description is as above. Here is the method: as §1

In assay [3] the target is PD-L1 [B7-H1] (Sino Biological) (UniProt Q9NZQ7 19-239, limits assumed). The assay is described as above. Here is the method: as §1
Assay [4] concerns the target T4, CD273[PD-L2] (Sino Biological) (UniProt Q9BQ51 20-219, limits assumed).
T4 sequence (looked up): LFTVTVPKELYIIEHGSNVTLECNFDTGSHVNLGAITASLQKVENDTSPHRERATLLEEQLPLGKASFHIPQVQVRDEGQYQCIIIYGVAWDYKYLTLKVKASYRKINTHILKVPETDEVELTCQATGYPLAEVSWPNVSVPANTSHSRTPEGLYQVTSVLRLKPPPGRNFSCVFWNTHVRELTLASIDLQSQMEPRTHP
Described as above. Here is the method:
as §1

In a further assay the target is T5, B7-H4 (Sino Biological) (UniProt Q7Z7D3 25-258, limits assumed).
T5 sequence (looked up): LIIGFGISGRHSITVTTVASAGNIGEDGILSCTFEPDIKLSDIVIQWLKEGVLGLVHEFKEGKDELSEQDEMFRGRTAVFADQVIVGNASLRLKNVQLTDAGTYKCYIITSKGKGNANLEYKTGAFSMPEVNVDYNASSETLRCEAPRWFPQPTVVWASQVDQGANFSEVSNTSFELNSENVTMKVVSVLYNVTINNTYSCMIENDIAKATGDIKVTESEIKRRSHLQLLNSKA
The description is as above. Here is the method:
as §1

The target of assay [5] is T6, ICOS Ligand[B7-H2] (Sino Biological) (UniProt O75144 19-258, limits assumed).
T6 sequence (looked up): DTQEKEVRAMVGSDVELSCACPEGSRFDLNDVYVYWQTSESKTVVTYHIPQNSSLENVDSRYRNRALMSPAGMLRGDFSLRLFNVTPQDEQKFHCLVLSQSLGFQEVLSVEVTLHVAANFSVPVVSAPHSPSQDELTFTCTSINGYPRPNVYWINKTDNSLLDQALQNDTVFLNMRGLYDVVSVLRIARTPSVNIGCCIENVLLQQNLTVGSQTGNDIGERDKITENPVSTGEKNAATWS
The description is as above. Here is the method:
as §1

In assay [6] the target is T7, CD80[B7-1] (Sino Biological) (UniProt P33681 35-242, limits assumed).
T7 sequence (looked up): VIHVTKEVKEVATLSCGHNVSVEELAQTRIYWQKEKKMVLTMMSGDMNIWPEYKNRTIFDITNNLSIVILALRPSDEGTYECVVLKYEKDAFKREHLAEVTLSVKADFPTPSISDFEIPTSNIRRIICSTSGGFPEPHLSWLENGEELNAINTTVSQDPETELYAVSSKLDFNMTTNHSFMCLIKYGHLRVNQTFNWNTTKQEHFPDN
The description is as above. Here is the method:
as §1

Assay [7] has as its target T8, CD276[B7-H3] (Sino Biological) (UniProt Q5ZPR3 29-461, limits assumed).
T8 sequence (looked up): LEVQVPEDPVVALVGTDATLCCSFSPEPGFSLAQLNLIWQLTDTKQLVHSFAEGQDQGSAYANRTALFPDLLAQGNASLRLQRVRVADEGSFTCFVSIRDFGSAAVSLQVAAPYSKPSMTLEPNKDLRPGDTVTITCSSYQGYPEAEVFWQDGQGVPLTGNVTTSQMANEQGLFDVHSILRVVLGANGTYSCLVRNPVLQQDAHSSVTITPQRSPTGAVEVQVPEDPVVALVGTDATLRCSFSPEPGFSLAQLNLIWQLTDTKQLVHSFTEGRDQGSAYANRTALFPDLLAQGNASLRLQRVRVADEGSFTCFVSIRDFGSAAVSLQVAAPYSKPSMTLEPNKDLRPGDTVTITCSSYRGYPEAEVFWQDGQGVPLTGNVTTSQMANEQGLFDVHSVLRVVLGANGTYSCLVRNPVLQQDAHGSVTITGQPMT
The assay is described as above. Here is the method: as §1

Sequence of PD-L1 [B7-H1] (Sino Biological) (Q9NZQ7 19-239 limits assumed): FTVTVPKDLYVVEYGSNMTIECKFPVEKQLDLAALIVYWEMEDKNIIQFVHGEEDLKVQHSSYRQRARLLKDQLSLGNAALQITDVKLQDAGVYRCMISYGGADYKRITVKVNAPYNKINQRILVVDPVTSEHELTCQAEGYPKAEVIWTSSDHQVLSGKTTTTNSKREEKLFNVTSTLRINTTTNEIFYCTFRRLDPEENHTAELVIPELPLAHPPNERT

B1: SL18 (antibody, V domains shown)
VH: RVQLLESGGGLVQPGGSLRLSCAASGFTFSDYHMHWVRQAPGKGLEWVSTISSSGGYTYYAESVKSRFTISRDNSKNTLYLQMNSLRAEDTAVYYCARSIRLPLDYWGQGTLVTVSS
VL: QSVLTQPPSASGTPGQRVTISCSGNNIGSKGVHWYQQLPGTAPKLLIYEDSKRPSGVRDRFSGSKSGTSASLAISGLRSEDEADYYCQSYDSTKGVVFGGGTKLTVL
For the molecule B1, the “cancer cell proliferation inhibitory effect on CT26 mouse colorectal cancer cells (CCK-8, 10 ug/mL antibody, 5 days), higher than the control group” value with mouse CD300c antigen is 38%.

B2: CL7 (antibody, V domains shown)
VH: EVQLLESGGGLVQPGGSLRLSCAASGFTFSRYAMSWVRQAPGKGLEWVSAISGSGGSTYYADSVKGRFTISRDNSKNTLYLQMNSLRAEDTAVYYCARSSQGIFDIWGQGTLVTVSS
VL: QSVLTQPPSASGTPGQRVTISCSGNNIGTRRVHWYQQLPDTAPKLLIYSKNNRPSGVPDRFSGSKSGTSASLAISGLRSEDEADYYCAAWDDSLSGPVFGGGTKLTVL
notes: VH3VL1 phage library clone; also called anti-CD300c monoclonal antibody CL7; CB301 antibody CL7
For B2, the binding result (in [1]; in assay [2]; in [3]; in assay [4]; with B7-H4 (Sino Biological); in assay [5]) was “no binding (tested: log10 about 0.4 (about 2.5 ug/ml))” in each case. Besides, the binding result in assay [6] and in assay [7] was “no binding (tested: log10 about 0.4 (about 2.5 ug/ml))” each time. Moreover, in the assay with mouse CD300c antigen, the “cancer cell proliferation inhibitory effect on CT26 mouse colorectal cancer cells (CCK-8, 10 ug/mL antibody, 5 days), higher than the control group” value stood at 66%.

B3: CL10 (antibody, V domains shown)
VH: EVQLLESGGGLVQPGGSLRLSCAASGFTFSSYGMHWVRQAPGKGLEWVSAISGSGGSTYYADSVKGRFTISRDNSKNTLYLQMNSLRAEDTAVYYCASGYGLMDVWGQGTLVTVSS
VL: QSVLTQPPSASGTPGQRVTISCTRSSGIIASNYVQWYQQLPGTAPKLLIYRNNQRPSGVPDRFSGSKSGTSASLAISGLRSEDEADYYCSSYAGNNNLVFGGGTKLTVL
As to B3, the “cancer cell proliferation inhibitory effect on CT26 mouse colorectal cancer cells (CCK-8, 10 ug/mL antibody, 5 days), higher than the control group” value with mouse CD300c antigen stood at 15%.
